Reference: the supplement of paper PMC9112550, “Optimization of the antimicrobial peptide Bac7 by deep mutational scanning” (BMC Biology, 2022)

Tested on: Escherichia coli TOP10
Experiment: shrunken log2 fold change of peptide-encoding DNA abundance (4.5 h post-induction vs induction); higher = less antimicrobial activity (less host growth inhibition)
Details: time post-induction: 4.5 h; library: site-saturation at positions 5, 18, 19, 20
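Also: peptides expressed intracellularly from a pBAD plasmid library in pooled LB shake-flask culture, induced with 0.3% L-arabinose, DNA abundance read by NGS, three biological replicates, DESeq2 with apeglm shrinkage.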

| Sequence | shrunken log2 fold change |
| --- | --- |
| RRIRWRPPRLPRPRPRPMDYPRP | -0.314 |
| RRIRWRPPRLPRPRPRPMFKPRP | 0.0191 |
| RRIRWRPPRLPRPRPRPMFPPRP | 0.0483 |
| RRIRWRPPRLPRPRPRPMFRPRP | -0.129 |
| RRIRWRPPRLPRPRPRPMFWPRP | 0.324 |
| RRIRWRPPRLPRPRPRPMGTPRP | -0.00133 |
| RRIRWRPPRLPRPRPRPMICPRP | -0.00725 |
| RRIRWRPPRLPRPRPRPMIHPRP | -0.0666 |
| RRIRWRPPRLPRPRPRPMPEPRP | -0.236 |
| RRIRWRPPRLPRPRPRPMQYPRP | 0.0439 |
| RRIRWRPPRLPRPRPRPMRMPRP | 0.329 |
| RRIRWRPPRLPRPRPRPMSKPRP | -0.133 |
| RRIRWRPPRLPRPRPRPMVEPRP | 0.35 |
| RRIRWRPPRLPRPRPRPNAKPRP | 0.188 |
| RRIRWRPPRLPRPRPRPNAMPRP | 0.123 |
| RRIRWRPPRLPRPRPRPNCTPRP | 0.0251 |
| RRIRWRPPRLPRPRPRPNEIPRP | 0.0563 |
| RRIRWRPPRLPRPRPRPNELPRP | 0.073 |
| RRIRWRPPRLPRPRPRPNGCPRP | 0.0739 |
| RRIRWRPPRLPRPRPRPNGQPRP | 0.158 |
| RRIRWRPPRLPRPRPRPNKMPRP | 0.075 |
| RRIRWRPPRLPRPRPRPNKYPRP | -0.481 |
| RRIRWRPPRLPRPRPRPNLTPRP | -0.222 |
| RRIRWRPPRLPRPRPRPNMFPRP | -0.0911 |
| RRIRWRPPRLPRPRPRPNPFPRP | 0.208 |

| Sequence | shrunken log2 fold change |
| --- | --- |
| RRIRWRPPRLPRPRPRPNPMPRP | -0.176 |
| RRIRWRPPRLPRPRPRPNSIPRP | -0.396 |
| RRIRWRPPRLPRPRPRPNTGPRP | -0.096 |
| RRIRWRPPRLPRPRPRPNVLPRP | -0.0626 |
| RRIRWRPPRLPRPRPRPNVTPRP | -0.22 |
| RRIRWRPPRLPRPRPRPNWAPRP | -0.0835 |
| RRIRWRPPRLPRPRPRPNWHPRP | -0.00322 |
| RRIRWRPPRLPRPRPRPNWLPRP | 0.0255 |
| RRIRWRPPRLPRPRPRPNYQPRP | -0.365 |
| RRIRWRPPRLPRPRPRPNYTPRP | -0.279 |
| RRIRWRPPRLPRPRPRPPAEPRP | 2.93 |
| RRIRWRPPRLPRPRPRPPAIPRP | 0.178 |
| RRIRWRPPRLPRPRPRPPALPRP | 0.433 |
| RRIRWRPPRLPRPRPRPPCAPRP | 0.563 |
| RRIRWRPPRLPRPRPRPPDCPRP | -0.259 |
| RRIRWRPPRLPRPRPRPPDFPRP | -0.087 |
| RRIRWRPPRLPRPRPRPPECPRP | -0.0729 |
| RRIRWRPPRLPRPRPRPPESPRP | 0.225 |
| RRIRWRPPRLPRPRPRPPHGPRP | 0.428 |
| RRIRWRPPRLPRPRPRPPIGPRP | 0.324 |
| RRIRWRPPRLPRPRPRPPKSPRP | 0.789 |
| RRIRWRPPRLPRPRPRPPMNPRP | -0.0715 |
| RRIRWRPPRLPRPRPRPPMQPRP | 0.322 |
| RRIRWRPPRLPRPRPRPPMYPRP | -0.216 |
| RRIRWRPPRLPRPRPRPPNLPRP | -0.24 |

| Sequence | shrunken log2 fold change |
| --- | --- |
| RRIRWRPPRLPRPRPRPPNTPRP | 0.142 |
| RRIRWRPPRLPRPRPRPPPYPRP | 0.0878 |
| RRIRWRPPRLPRPRPRPPREPRP | 0.808 |
| RRIRWRPPRLPRPRPRPPRGPRP | 0.584 |
| RRIRWRPPRLPRPRPRPPTHPRP | 0.469 |
| RRIRWRPPRLPRPRPRPPVKPRP | 0.644 |
| RRIRWRPPRLPRPRPRPPWHPRP | 0.134 |
| RRIRWRPPRLPRPRPRPPWSPRP | 0.378 |
| RRIRWRPPRLPRPRPRPPYEPRP | -0.103 |
| RRIRWRPPRLPRPRPRPPYNPRP | -0.221 |
| RRIRWRPPRLPRPRPRPQCAPRP | 0.572 |
| RRIRWRPPRLPRPRPRPQCEPRP | -0.0451 |
| RRIRWRPPRLPRPRPRPQCGPRP | -0.0434 |
| RRIRWRPPRLPRPRPRPQCMPRP | -0.157 |
| RRIRWRPPRLPRPRPRPQDVPRP | -0.0384 |
| RRIRWRPPRLPRPRPRPQFKPRP | -0.0678 |
| RRIRWRPPRLPRPRPRPQFLPRP | -0.0223 |
| RRIRWRPPRLPRPRPRPQGFPRP | -0.0818 |
| RRIRWRPPRLPRPRPRPQIHPRP | -0.681 |
| RRIRWRPPRLPRPRPRPQKFPRP | -0.0956 |
| RRIRWRPPRLPRPRPRPQNKPRP | -0.536 |
| RRIRWRPPRLPRPRPRPQPKPRP | 0.294 |
| RRIRWRPPRLPRPRPRPQPRPRP | 0.462 |
| RRIRWRPPRLPRPRPRPQQAPRP | -0.000157 |
| RRIRWRPPRLPRPRPRPQQFPRP | -0.262 |

| Sequence | shrunken log2 fold change |
| --- | --- |
| RRIRWRPPRLPRPRPRPQQMPRP | -0.128 |
| RRIRWRPPRLPRPRPRPQQYPRP | -0.284 |
| RRIRWRPPRLPRPRPRPQSLPRP | 0.00606 |
| RRIRWRPPRLPRPRPRPQTNPRP | 0.14 |
| RRIRWRPPRLPRPRPRPQVHPRP | 0.0992 |
| RRIRWRPPRLPRPRPRPQVNPRP | 0.141 |
| RRIRWRPPRLPRPRPRPQYIPRP | -0.944 |
| RRIRWRPPRLPRPRPRPRCAPRP | 0.586 |
| RRIRWRPPRLPRPRPRPRCEPRP | 0.545 |
| RRIRWRPPRLPRPRPRPRDLPRP | 0.276 |
| RRIRWRPPRLPRPRPRPREHPRP | 0.822 |
| RRIRWRPPRLPRPRPRPREMPRP | 0.262 |
| RRIRWRPPRLPRPRPRPRFPPRP | 0.304 |
| RRIRWRPPRLPRPRPRPRFVPRP | 0.139 |
| RRIRWRPPRLPRPRPRPRFWPRP | 0.455 |
| RRIRWRPPRLPRPRPRPRHQPRP | -0.0137 |
| RRIRWRPPRLPRPRPRPRIAPRP | 0.133 |
| RRIRWRPPRLPRPRPRPRIHPRP | 0.178 |
| RRIRWRPPRLPRPRPRPRILPRP | 0.188 |
| RRIRWRPPRLPRPRPRPRIPPRP | 0.0219 |
| RRIRWRPPRLPRPRPRPRLCPRP | 0.512 |
| RRIRWRPPRLPRPRPRPRLEPRP | 0.778 |
| RRIRWRPPRLPRPRPRPRLPPRP | 0.471 |
| RRIRWRPPRLPRPRPRPRMIPRP | 0.693 |
| RRIRWRPPRLPRPRPRPRNWPRP | 0.172 |

| Sequence | shrunken log2 fold change |
| --- | --- |
| RRIRWRPPRLPRPRPRPRPTPRP | 0.547 |
| RRIRWRPPRLPRPRPRPRQYPRP | -0.534 |
| RRIRWRPPRLPRPRPRPRRDPRP | 0.243 |
| RRIRWRPPRLPRPRPRPRSIPRP | -0.006 |
| RRIRWRPPRLPRPRPRPRTKPRP | 1.88 |
| RRIRWRPPRLPRPRPRPRWFPRP | 0.999 |
| RRIRWRPPRLPRPRPRPRWGPRP | 0.534 |
| RRIRWRPPRLPRPRPRPRWQPRP | -0.0189 |
| RRIRWRPPRLPRPRPRPRWRPRP | 0.552 |
| RRIRWRPPRLPRPRPRPRYIPRP | -0.665 |
| RRIRWRPPRLPRPRPRPRYTPRP | -0.25 |
| RRIRWRPPRLPRPRPRPSAYPRP | -0.549 |
| RRIRWRPPRLPRPRPRPSCNPRP | -0.0978 |
| RRIRWRPPRLPRPRPRPSDVPRP | -0.545 |
| RRIRWRPPRLPRPRPRPSEEPRP | 0.129 |
| RRIRWRPPRLPRPRPRPSHIPRP | -0.241 |
| RRIRWRPPRLPRPRPRPSIEPRP | 0.0114 |
| RRIRWRPPRLPRPRPRPSIQPRP | -0.0487 |
| RRIRWRPPRLPRPRPRPSITPRP | -0.0237 |
| RRIRWRPPRLPRPRPRPSKGPRP | 0.0944 |
| RRIRWRPPRLPRPRPRPSLVPRP | -0.0104 |
| RRIRWRPPRLPRPRPRPSMMPRP | 0.157 |
| RRIRWRPPRLPRPRPRPSMNPRP | 0.0339 |
| RRIRWRPPRLPRPRPRPSNNPRP | -0.446 |
| RRIRWRPPRLPRPRPRPSNSPRP | -0.498 |

| Sequence | shrunken log2 fold change |
| --- | --- |
| RRIRWRPPRLPRPRPRPSPPPRP | 0.423 |
| RRIRWRPPRLPRPRPRPSQAPRP | -0.126 |
| RRIRWRPPRLPRPRPRPSQPPRP | -0.0613 |
| RRIRWRPPRLPRPRPRPSQTPRP | 0.657 |
| RRIRWRPPRLPRPRPRPSRMPRP | 0.0635 |
| RRIRWRPPRLPRPRPRPSSDPRP | -0.0856 |
| RRIRWRPPRLPRPRPRPSSRPRP | 0.188 |
| RRIRWRPPRLPRPRPRPSVEPRP | 0.172 |
| RRIRWRPPRLPRPRPRPSWEPRP | -0.0924 |
| RRIRWRPPRLPRPRPRPSYHPRP | -0.568 |
| RRIRWRPPRLPRPRPRPSYIPRP | -0.715 |
| RRIRWRPPRLPRPRPRPSYKPRP | -0.479 |
| RRIRWRPPRLPRPRPRPSYMPRP | -0.502 |
| RRIRWRPPRLPRPRPRPSYTPRP | -0.656 |
| RRIRWRPPRLPRPRPRPTACPRP | 0.317 |
| RRIRWRPPRLPRPRPRPTAMPRP | 0.814 |
| RRIRWRPPRLPRPRPRPTAYPRP | 0.0204 |
| RRIRWRPPRLPRPRPRPTCEPRP | 0.752 |
| RRIRWRPPRLPRPRPRPTDDPRP | -0.0402 |
| RRIRWRPPRLPRPRPRPTECPRP | 0.0746 |
| RRIRWRPPRLPRPRPRPTFIPRP | -0.417 |
| RRIRWRPPRLPRPRPRPTGHPRP | 0.317 |
| RRIRWRPPRLPRPRPRPTHEPRP | 0.219 |
| RRIRWRPPRLPRPRPRPTHIPRP | -0.067 |
| RRIRWRPPRLPRPRPRPTIHPRP | 0.13 |
